We go through 1 variant from IntAct's records for PubMed 24819706.

First the molecules themselves.
B1: Transcriptional activator GLI3 (Homo sapiens), P10071 (parent)
chain: MEAQSHSSTTTEKKKVENSIVKCSTRTDVSEKAVASSTTSNEDESPGQTYHRERRNAITMQPQNVQGLSKVSEEPSTSSDERASLIKKEIHGSLPHVAEPSVPYRGTVFAMDPRNGYMEPHYHPPHLFPAFHPPVPIDARHHEGRYHYDPSPIPPLHMTSALSSSPTYPDLPFIRISPHRNPTAASESPFSPPHPYINPYMDYIRSLHSSPSLSMISATRGLSPTDAPHAGVSPAEYYHQMALLTGQRSPYADIIPSAATAGTGAIHMEYLHAMDSTRFSSPRLSARPSRKRTLSISPLSDHSFDLQTMIRTSPNSLVTILNNSRSSSSASGSYGHLSASAISPALSFTYSSAPVSLHMHQQILSRQQSLGSAFGHSPPLIHPAPTFPTQRPIPGIPTVLNPVQVSSGPSESSQNKPTSESAVSSTGDPMHNKRSKIKPDEDLPSPGARGQQEQPEGTTLVKEEGDKDESKQEPEVIYETNCHWEGCAREFDTQEQLVHHINNDHIHGEKKEFVCRWLDCSREQKPFKAQYMLVVHMRRHTGEKPHKCTFEGCTKAYSRLENLKTHLRSHTGEKPYVCEHEGCNKAFSNASDRAKHQNRTHSNEKPYVCKIPGCTKRYTDPSSLRKHVKTVHGPEAHVTKKQRGDIHPRPPPPRDSGSHSQSRSPGRPTQGALGEQQDLSNTTSKREECLQVKTVKAEKPMTSQPSPGGQSSCSSQQSPISNYSNSGLELPLTDGGSIGDLSAIDETPIMDSTISTATTALALQARRNPAGTKWMEHVKLERLKQVNGMFPRLNPILPPKAPAVSPLIGNGTQSNNTCSLGGPMTLLPGRSDLSGVDVTMLNMLNRRDSSASTISSAYLSSRRSSGISPCFSSRRSSEASQAEGRPQNVSVADSYDPISTDASRRSSEASQSDGLPSLLSLTPAQQYRLKAKYAAATGGPPPTPLPNMERMSLKTRLALLGDALEPGVALPPVHAPRRCSDGGAHGYGRRHLQPHDAPGHGVRRASDPVRTGSEGLALPRVPRFSSLSSCNPPAMATSAEKRSLVLQNYTRPEGGQSRNFHSSPCPPSITENVTLESLTMDADANLNDEDFLPDDVVQYLNSQNQAGYEQHFPSALPDDSKVPHGPGDFDAPGLPDSHAGQQFHALEQPCPEGSKTDLPIQWNEVSSGSADLSSSKLKCGPRPAVPQTRAFGFCNGMVVHPQNPLRSGPAGGYQTLGENSNPYGGPEHLMLHNSPGSGTSGNAFHEQPCKAPQYGNCLNRQPVAPGALDGACGAGIQASKLKSTPMQGSGGQLNFGLPVAPNESAGSMVNGMQNQDPVGQGYLAHQLLGDSMQHPGAGRPGQQMLGQISATSHINIYQGPESCLPGAHGMGSQPSSLAVVRGYQPCASFGGSRRQAMPRDSLALQSGQLSDTSQTCRVNGIKMEMKGQPHPLCSNLQNYSGQFYDQTVGFSQQDTKAGSFSISDASCLLQGTSAKNSELLSPGANQVTSTVDSLDSHDLEGVQIDFDAIIDDGDHSSLMSGALSPSIIQNLSHSSSRLTTPRASLPFPALSMSTTNMAIGDMSSLLTSLAEESKFLAVMQ
partner: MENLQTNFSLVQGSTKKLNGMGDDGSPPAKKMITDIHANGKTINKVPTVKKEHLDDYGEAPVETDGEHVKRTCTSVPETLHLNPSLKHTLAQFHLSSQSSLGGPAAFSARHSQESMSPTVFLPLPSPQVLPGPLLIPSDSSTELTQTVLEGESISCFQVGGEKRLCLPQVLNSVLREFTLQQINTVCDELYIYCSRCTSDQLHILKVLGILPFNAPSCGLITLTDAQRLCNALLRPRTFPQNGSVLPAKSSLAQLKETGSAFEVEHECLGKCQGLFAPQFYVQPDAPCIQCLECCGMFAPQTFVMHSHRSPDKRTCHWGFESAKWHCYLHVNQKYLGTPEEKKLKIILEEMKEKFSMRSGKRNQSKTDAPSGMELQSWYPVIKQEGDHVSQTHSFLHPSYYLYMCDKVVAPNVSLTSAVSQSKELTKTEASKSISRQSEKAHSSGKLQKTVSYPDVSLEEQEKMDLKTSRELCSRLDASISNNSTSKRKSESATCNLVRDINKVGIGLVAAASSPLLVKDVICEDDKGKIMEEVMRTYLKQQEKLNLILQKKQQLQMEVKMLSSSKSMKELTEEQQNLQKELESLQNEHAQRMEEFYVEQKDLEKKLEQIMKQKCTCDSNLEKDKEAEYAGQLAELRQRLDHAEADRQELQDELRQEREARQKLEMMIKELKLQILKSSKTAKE

In the experiment the parent is B1. The conditions noted are these: with skil_human SKIL.
In the case of M111T, the “effect of a mutation on the interaction” value is on record as “decreasing interaction strength”.
